Experimental findings from patent US20250051460A1 (Boehringer Ingelheim, published 2025) are described below.

“And” between values parts separate entries of the source, which are not always exact repeats. Equal values may be shown once. Read-outs that look alike come from different tables or passages of the source.

Holding throughout (assay): cell-based or functional assay
The target in assay [1] is T1, human VEGF-A (human, UniProt P15692-4 27-191).
Assay [2] concerns the target T1, human VEGF-A. The source holds these as a separate data set.
The target of assay [3] is T1, human VEGF-A. This is another data set of the same source.
The target of assay [4] is T1, human VEGF-A. The source holds these as a separate data set.
Assay [5] concerns the target T1, human VEGF-A. The source holds these as a separate data set.
Assay [6] deals with T1, human VEGF-A. The source holds these as a separate data set.

T1 sequence (P15692 other isoform, or with tags, fused parts or gaps limits assumed): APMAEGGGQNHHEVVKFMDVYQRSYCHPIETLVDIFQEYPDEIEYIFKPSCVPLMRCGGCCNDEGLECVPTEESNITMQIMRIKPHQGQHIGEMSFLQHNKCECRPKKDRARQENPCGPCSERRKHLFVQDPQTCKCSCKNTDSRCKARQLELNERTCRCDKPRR

B1: TPP-14937 (bispecific antibody, human IgG1, kappa, L234A L235A)
heavy: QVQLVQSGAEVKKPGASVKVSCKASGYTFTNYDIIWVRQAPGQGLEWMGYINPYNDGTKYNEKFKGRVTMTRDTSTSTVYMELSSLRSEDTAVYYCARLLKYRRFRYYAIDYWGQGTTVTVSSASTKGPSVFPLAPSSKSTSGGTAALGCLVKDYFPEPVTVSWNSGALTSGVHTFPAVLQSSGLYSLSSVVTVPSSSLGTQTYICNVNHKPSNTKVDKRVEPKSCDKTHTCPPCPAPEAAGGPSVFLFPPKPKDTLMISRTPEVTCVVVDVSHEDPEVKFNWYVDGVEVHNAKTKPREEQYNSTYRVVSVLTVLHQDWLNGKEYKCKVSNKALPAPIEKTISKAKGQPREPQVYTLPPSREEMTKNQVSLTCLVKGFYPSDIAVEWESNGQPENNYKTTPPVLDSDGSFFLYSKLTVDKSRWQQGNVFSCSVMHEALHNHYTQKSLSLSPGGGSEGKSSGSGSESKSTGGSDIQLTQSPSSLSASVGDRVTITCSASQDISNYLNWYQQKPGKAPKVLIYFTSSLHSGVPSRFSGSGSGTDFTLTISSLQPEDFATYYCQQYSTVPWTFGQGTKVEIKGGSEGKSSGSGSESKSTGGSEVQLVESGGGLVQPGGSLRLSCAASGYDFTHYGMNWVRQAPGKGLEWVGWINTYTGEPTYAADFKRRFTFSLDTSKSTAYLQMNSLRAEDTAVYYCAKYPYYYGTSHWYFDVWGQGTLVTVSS
light: DIQMTQSPSSLSASVGDRVTITCRTSENVYSNLAWYQQKPGKAPKLLIYAASNLQSGVPSRFSGSGSGTDYTFTISSLQPEDIATYYCQHFWGSPFTFGQGTKLEIKRTVAAPSVFIFPPSDEQLKSGTASVVCLLNNFYPREAKVQWKVDNALQSGNSQESVTEQDSKDSTYSLSSTLTLSKADYEKHKVYACEVTHQGLSSPVTKSFNRGEC
In the case of B1, in assay [1], the “concentration for full inhibition of VEGF-induced HRMEC proliferation” value turned out to be 4 nM. Further, in assay [2], the “Bottom plateau (ERK1/2 phosphorylation, counts)” value was -927 counts; the “Bottom plateau (Src phosphorylation, counts)” value came to 4570 counts; the “IC50 (ERK1/2 phosphorylation)” value amounted to 5.6 nM; the “IC50 (Src phosphorylation)” value came out at 5.8 nM. Further, in assay [3], the “Bottom plateau (ERK1/2 phosphorylation, counts)” value is -926 counts; the “Bottom plateau (Src phosphorylation, counts)” value is 4570 counts; the “IC50 (ERK1/2 phosphorylation)” value was 5.58 nM; the “IC50 (Src phosphorylation)” value was 5.83 nM.

B2: TPP-11738 (bispecific antibody, human IgG1, kappa, L234A L235A)
heavy: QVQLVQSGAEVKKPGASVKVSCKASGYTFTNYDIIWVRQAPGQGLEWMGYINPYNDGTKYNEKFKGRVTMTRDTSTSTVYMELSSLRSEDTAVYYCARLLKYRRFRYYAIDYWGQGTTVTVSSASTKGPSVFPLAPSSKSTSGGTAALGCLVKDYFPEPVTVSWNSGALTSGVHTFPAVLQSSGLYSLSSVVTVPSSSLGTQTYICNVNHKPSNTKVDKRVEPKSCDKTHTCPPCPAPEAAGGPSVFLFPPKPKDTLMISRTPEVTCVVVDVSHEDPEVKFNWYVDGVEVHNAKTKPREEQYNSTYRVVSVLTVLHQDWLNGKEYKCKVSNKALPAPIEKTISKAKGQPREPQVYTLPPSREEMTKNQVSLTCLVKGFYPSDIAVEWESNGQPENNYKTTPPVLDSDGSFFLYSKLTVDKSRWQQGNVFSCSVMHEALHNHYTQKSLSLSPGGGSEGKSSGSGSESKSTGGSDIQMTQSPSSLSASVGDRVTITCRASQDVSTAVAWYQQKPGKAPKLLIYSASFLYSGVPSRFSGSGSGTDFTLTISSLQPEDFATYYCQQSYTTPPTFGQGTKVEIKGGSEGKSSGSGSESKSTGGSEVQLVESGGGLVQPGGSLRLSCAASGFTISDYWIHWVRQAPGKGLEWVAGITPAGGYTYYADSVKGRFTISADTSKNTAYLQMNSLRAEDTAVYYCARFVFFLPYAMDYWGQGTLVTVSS
light: DIQMTQSPSSLSASVGDRVTITCRTSENVYSNLAWYQQKPGKAPKLLIYAASNLQSGVPSRFSGSGSGTDYTFTISSLQPEDIATYYCQHFWGSPFTFGQGTKLEIKRTVAAPSVFIFPPSDEQLKSGTASVVCLLNNFYPREAKVQWKVDNALQSGNSQESVTEQDSKDSTYSLSSTLTLSKADYEKHKVYACEVTHQGLSSPVTKSFNRGEC
For B2, the “IC50 (ERK1/2 phosphorylation)” value in assay [1] is ~4 nM and ~10 nM.

B3: TPP-11736 (bispecific antibody, human IgG1, kappa, L234A L235A)
heavy: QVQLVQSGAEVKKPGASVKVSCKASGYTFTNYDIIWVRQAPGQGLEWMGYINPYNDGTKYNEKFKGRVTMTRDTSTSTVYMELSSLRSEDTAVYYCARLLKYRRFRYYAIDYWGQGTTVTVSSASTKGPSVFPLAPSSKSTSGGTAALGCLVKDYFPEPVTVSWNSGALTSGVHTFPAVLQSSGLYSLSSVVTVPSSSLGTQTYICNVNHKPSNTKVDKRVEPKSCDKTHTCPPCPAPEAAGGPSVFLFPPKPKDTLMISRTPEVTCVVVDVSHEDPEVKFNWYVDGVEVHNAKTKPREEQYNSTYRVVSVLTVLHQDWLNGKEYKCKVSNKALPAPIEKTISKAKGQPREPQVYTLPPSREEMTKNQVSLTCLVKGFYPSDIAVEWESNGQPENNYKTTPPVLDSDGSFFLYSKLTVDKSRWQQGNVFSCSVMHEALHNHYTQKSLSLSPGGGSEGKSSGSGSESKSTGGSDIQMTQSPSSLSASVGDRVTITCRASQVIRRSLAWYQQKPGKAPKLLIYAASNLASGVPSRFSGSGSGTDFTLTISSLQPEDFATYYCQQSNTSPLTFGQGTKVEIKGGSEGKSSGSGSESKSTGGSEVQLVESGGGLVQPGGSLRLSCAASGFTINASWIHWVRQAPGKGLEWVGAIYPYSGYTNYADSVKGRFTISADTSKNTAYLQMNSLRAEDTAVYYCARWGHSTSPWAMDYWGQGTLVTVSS
light: DIQMTQSPSSLSASVGDRVTITCRTSENVYSNLAWYQQKPGKAPKLLIYAASNLQSGVPSRFSGSGSGTDYTFTISSLQPEDIATYYCQHFWGSPFTFGQGTKLEIKRTVAAPSVFIFPPSDEQLKSGTASVVCLLNNFYPREAKVQWKVDNALQSGNSQESVTEQDSKDSTYSLSSTLTLSKADYEKHKVYACEVTHQGLSSPVTKSFNRGEC
On to B3, for which the “IC50 (ERK1/2 phosphorylation)” value in assay [1] was ~4 nM and ~10 nM; in assay [4], 9.1 nM; in assay [2], 5.6 nM; in assay [5] it was 5.59 nM; in assay [3] it was 5.59 nM; in assay [6], 5.59 nM. Further, the figures for the “IC50 (p38 MAPK phosphorylation)” value in assay [1] and in assay [4] were approximately 7.4 nM and 7.7 nM, respectively. In addition, the “Bottom plateau (ERK1/2 phosphorylation, counts)” value in assay [2], in assay [5], in assay [3] and in assay [6] was 3690 counts throughout. The “Bottom plateau (Src phosphorylation, counts)” value in assay [2], in assay [5], in assay [3] and in assay [6] was 6300 counts throughout. Further, the “IC50 (Src phosphorylation)” value in assay [2] was 4 nM; in assay [5], 3.97 nM; in assay [3] it was 3.97 nM; in assay [6] it was 3.97 nM.

B4: TPP-14936 (bispecific antibody, human IgG1, kappa, L234A L235A)
heavy: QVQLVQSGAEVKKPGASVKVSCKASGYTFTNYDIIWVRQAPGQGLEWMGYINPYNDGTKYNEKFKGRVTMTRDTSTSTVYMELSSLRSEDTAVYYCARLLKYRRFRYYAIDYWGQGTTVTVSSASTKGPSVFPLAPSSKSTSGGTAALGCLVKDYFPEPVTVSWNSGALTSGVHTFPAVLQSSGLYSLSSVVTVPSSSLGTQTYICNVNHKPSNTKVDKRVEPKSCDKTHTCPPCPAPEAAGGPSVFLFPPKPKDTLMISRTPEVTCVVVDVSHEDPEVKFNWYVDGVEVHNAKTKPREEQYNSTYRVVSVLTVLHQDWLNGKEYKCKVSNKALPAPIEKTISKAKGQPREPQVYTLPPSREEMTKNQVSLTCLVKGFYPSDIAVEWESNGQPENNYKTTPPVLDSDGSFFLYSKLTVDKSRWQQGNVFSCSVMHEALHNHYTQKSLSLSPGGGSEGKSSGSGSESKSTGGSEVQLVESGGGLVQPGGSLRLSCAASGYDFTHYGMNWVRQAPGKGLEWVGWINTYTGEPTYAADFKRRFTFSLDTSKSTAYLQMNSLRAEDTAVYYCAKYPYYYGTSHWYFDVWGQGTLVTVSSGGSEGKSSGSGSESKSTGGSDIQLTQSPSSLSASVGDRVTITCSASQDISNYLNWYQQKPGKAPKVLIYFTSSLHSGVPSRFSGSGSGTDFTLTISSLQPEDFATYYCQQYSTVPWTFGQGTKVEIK
light: DIQMTQSPSSLSASVGDRVTITCRTSENVYSNLAWYQQKPGKAPKLLIYAASNLQSGVPSRFSGSGSGTDYTFTISSLQPEDIATYYCQHFWGSPFTFGQGTKLEIKRTVAAPSVFIFPPSDEQLKSGTASVVCLLNNFYPREAKVQWKVDNALQSGNSQESVTEQDSKDSTYSLSSTLTLSKADYEKHKVYACEVTHQGLSSPVTKSFNRGEC
Turning to B4, in assay [1], the “concentration for full inhibition of VEGF-induced HRMEC proliferation” value is 1 nM. Further, in assay [2], the “Bottom plateau (ERK1/2 phosphorylation, counts)” value is -341 counts; the “Bottom plateau (Src phosphorylation, counts)” value is 4650 counts; the “IC50 (ERK1/2 phosphorylation)” value came to 3.5 nM; the “IC50 (Src phosphorylation)” value was 3.4 nM. Further, in assay [3], the “Bottom plateau (ERK1/2 phosphorylation, counts)” value is -340 counts; the “Bottom plateau (Src phosphorylation, counts)” value was 4650 counts; the “IC50 (ERK1/2 phosphorylation)” value was found to be 3.49 nM; the “IC50 (Src phosphorylation)” value is 3.4 nM.

B5: TPP-14938 (bispecific antibody, human IgG1, kappa, L234A L235A)
heavy: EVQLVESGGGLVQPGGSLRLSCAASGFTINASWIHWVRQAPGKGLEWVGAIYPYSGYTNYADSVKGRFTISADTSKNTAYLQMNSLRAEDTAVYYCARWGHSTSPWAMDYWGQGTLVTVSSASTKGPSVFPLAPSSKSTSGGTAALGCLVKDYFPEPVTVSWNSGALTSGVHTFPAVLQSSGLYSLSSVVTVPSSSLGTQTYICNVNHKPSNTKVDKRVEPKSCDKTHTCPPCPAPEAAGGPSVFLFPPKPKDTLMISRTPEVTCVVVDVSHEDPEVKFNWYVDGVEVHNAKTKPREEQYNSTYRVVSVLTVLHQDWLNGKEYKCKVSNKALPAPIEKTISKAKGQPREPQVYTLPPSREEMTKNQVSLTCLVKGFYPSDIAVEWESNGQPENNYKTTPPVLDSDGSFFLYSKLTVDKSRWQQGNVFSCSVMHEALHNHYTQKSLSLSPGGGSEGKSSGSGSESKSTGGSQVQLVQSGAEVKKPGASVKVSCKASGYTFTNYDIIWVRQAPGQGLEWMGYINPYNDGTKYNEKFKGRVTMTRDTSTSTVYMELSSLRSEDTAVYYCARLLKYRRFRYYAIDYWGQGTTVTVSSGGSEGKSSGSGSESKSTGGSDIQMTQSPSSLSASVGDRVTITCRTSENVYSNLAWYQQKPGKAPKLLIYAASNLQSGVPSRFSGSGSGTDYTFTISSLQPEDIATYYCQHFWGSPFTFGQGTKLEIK
light: DIQMTQSPSSLSASVGDRVTITCRASQVIRRSLAWYQQKPGKAPKLLIYAASNLASGVPSRFSGSGSGTDFTLTISSLQPEDFATYYCQQSNTSPLTFGQGTKVEIKRTVAAPSVFIFPPSDEQLKSGTASVVCLLNNFYPREAKVQWKVDNALQSGNSQESVTEQDSKDSTYSLSSTLTLSKADYEKHKVYACEVTHQGLSSPVTKSFNRGEC
For B5, in assay [5], the “Bottom plateau (ERK1/2 phosphorylation, counts)” value was 1330 counts; the “Bottom plateau (Src phosphorylation, counts)” value was 5480 counts; the “IC50 (ERK1/2 phosphorylation)” value was determined as 2.71 nM; the “IC50 (Src phosphorylation)” value turned out to be 1.8 nM. In addition, in assay [6], the “Bottom plateau (ERK1/2 phosphorylation, counts)” value was 1330 counts; the “Bottom plateau (Src phosphorylation, counts)” value was found to be 5480 counts; the “IC50 (ERK1/2 phosphorylation)” value is 2.71 nM; the “IC50 (Src phosphorylation)” value is 1.8 nM.

B6: TPP-14939 (bispecific antibody, human IgG1, kappa, L234A L235A)
heavy: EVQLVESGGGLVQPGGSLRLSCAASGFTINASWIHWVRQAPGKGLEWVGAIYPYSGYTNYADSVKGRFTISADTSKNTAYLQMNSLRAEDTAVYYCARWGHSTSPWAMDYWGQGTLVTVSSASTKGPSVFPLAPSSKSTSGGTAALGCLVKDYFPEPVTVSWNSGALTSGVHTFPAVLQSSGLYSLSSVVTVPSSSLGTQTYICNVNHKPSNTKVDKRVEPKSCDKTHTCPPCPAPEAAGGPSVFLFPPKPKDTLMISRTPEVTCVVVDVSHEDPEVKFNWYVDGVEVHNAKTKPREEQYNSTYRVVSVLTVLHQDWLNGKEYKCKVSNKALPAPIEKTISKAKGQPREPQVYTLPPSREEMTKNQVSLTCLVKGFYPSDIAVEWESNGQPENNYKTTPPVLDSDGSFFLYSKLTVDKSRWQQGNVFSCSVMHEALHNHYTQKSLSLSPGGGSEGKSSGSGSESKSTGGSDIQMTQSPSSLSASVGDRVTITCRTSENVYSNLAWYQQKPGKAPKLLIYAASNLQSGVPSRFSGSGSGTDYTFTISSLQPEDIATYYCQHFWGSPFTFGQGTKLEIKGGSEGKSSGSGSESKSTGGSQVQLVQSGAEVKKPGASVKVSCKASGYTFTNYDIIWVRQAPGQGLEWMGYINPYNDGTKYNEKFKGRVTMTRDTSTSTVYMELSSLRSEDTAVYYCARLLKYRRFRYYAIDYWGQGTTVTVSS
light: DIQMTQSPSSLSASVGDRVTITCRASQVIRRSLAWYQQKPGKAPKLLIYAASNLASGVPSRFSGSGSGTDFTLTISSLQPEDFATYYCQQSNTSPLTFGQGTKVEIKRTVAAPSVFIFPPSDEQLKSGTASVVCLLNNFYPREAKVQWKVDNALQSGNSQESVTEQDSKDSTYSLSSTLTLSKADYEKHKVYACEVTHQGLSSPVTKSFNRGEC
As for B6, in assay [5], the “Bottom plateau (ERK1/2 phosphorylation, counts)” value turned out to be 1140 counts; the “Bottom plateau (Src phosphorylation, counts)” value came out at 5540 counts; the “IC50 (ERK1/2 phosphorylation)” value was 2.51 nM; the “IC50 (Src phosphorylation)” value turned out to be 1.16 nM. In assay [6], the “Bottom plateau (ERK1/2 phosphorylation, counts)” value was found to be 1140 counts; the “Bottom plateau (Src phosphorylation, counts)” value was found to be 5540 counts; the “IC50 (ERK1/2 phosphorylation)” value was found to be 2.51 nM; the “IC50 (Src phosphorylation)” value was 1.16 nM.
